The values that follow come from PMC4967043.

pKd: −log10 of the molar value.

This test concerns the target (SIM)m, m = 1. The experiment in a line: ITC. (In ITC the heat of successive injections is recorded.)

Broadly, the pKd is −log10 of the Kd, conventionally taken in molar units. High values mean a small Kd, low ones a large Kd. With “(SUMO)m, m = 1 (from UniProt P55854 1-92) (natural protein)”, the pKd was 5.00.
